# Experimental data from patent publication US20260258156A1 (TRIVENI BIO, published 2026).
# Positions count from the first letter of the chain named.
# B1: KLK5/KLK7-Dual-Ab2 (antibody, V domains shown)
# VH: QLQLQESGPGLVKPSETLSLTCTVSGGSISSDDYYWVWIRQPPGKGLEWIGSIDYFASTYYNPSLKSRVTISVDTSKNQFSLKLSSVTAADTAVYYCARGRPLGYGARHDYYGMDVWGQGTTVTVSS
# VL: DIQMTQSPSSLSASVGDRVTITCRASQSISSYLNWYQQKPGKAPKLLIYSASSLQSGVPSRFSGSGSGTDFTLTISSLQPEDFATYYCQQSPYFPPLTFGGGTKVEIK
# notes: Captured on a Protein A chip as an antibody; also called KLK5/7-Dual-Ab2
# B2: KLK5/KLK7-Dual-Ab4 (antibody, V domains shown)
# VH: B1 VH with D32L, F56S, A57G, S58D, D110Y, G113A
# VL: B1 VL
# notes: Captured on a Protein A chip or coupled to a CM5 chip as an antibody; also called KLK5/7-Dual-Ab4
# B3: KLK5/KLK7-Dual-Ab1 (antibody, V domains shown)
# VH: B1 VH with D32S, V37G, D54Y, F56S, A57G, D110Y
# VL: B1 VL with Y93P
# notes: Captured on a Protein A chip as an antibody; also called KLK5/7-Dual-Ab1
# B4: KLK5/KLK7-Dual-Ab3 (antibody, V domains shown)
# VH: B1 VH with F56Y, N62S, R108K, D110Y
# VL: B1 VL
# notes: Captured on a Protein A chip as an antibody; also called KLK5/7-Dual-Ab3
# Tests used:
# human KLK5, active form [1] = biological target: T1, human KLK5, active form (human, UniProt Q9Y337 67-293); test: cell-based or functional assay
# human KLK7, active form [2] = biological target: T2, human KLK7, active form (human, UniProt P49862 30-253); test: cell-based or functional assay
# mouse KLK5 [3] = biological target: mouse KLK5 (mouse); test: cell-based or functional assay
# mouse KLK7 [4] = biological target: T3, mouse KLK7 (mouse, UniProt Q91VE3 26-249, limits assumed); test: cell-based or functional assay
# human KLK5, active form [5] = biological target: T1, human KLK5, active form; test: SPR (Biacore), antibody captured on Protein A chip, KLK as analyte, single-cycle kinetics, 25 C
# Protocol: (§1) All screening assays were performed at 25° C. The running buffer used was 20 mM HEPES, 300 mM NaCl, 0.01% Tween-20, pH 7.5. Antibodies (1 μg/mL) were captured on Fc2-4 of a Series S ProteinA Sensor Chip (Cytiva) flowing at 10 μL/min for 30 s. Kinetics measurements were made in single-cycle kinetics mode with a series of 4-5 concentrations with top concentration of 25-100 nM and serial dilution 4-fold. Contact time was typically 300 s and dissociation time ranged from 1800-3600 s. Flow rate of 30 μL/min was typically used. The sensor chip was regenerated with 10 mM glycine, pH 1.5 with a contact time of 30 s flowing at 50 μL/min.
# human KLK7, active form [6] = biological target: T2, human KLK7, active form; test: as above
# Protocol: as §1
# mouse KLK5 [7] = biological target: T4, mouse KLK5 (mouse); test: as above
# T4 construct: also called mKLK5
# Protocol: as §1
# mouse KLK7 [8] = biological target: T3, mouse KLK7; test: as above
# Protocol: as §1
# human KLK5, active form [9] = biological target: T1, human KLK5, active form; test: SPR (Biacore), antibody captured on Protein A chip, active huKLK5 injected at 0.156-40 nM
# Protocol: (§2) The sensor chip was regenerated with 10 mM glycine, pH 1.5 with a contact time of 30 seconds flowing at 50 μL/min.
# human KLK7, active form [10] = biological target: T2, human KLK7, active form; test: SPR (Biacore), antibody captured on Protein A chip, active huKLK7 injected at 0.156-40 nM
# Protocol: as §2
# pro-form of human KLK5 = biological target: T5, pro-form of human KLK5 (human, UniProt Q9Y337 23-293); test: SPR (Biacore), antibody captured on Protein A chip, proform huKLK5 injected at 0.156-40 nM
# T5 construct: Pro-form (zymogen); also called proform of huKLK5; proKLK5
# Protocol: as §2
# pro-form of human KLK7 = biological target: T6, pro-form of human KLK7 (human, UniProt P49862 23-253); test: SPR (Biacore), antibody captured on Protein A chip, proform huKLK7 injected at 0.156-40 nM
# T6 construct: Pro-form (zymogen); also called proform of huKLK7; proKLK7
# T6 sequence (P49862 23-253): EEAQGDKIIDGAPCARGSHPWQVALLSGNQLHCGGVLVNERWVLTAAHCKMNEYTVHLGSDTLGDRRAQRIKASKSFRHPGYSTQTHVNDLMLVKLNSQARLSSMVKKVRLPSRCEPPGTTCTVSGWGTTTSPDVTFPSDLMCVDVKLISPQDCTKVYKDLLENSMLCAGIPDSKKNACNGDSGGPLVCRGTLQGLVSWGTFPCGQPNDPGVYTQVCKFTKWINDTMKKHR
# Protocol: as §2
# T3 sequence (Q91VE3 26-249 limits assumed): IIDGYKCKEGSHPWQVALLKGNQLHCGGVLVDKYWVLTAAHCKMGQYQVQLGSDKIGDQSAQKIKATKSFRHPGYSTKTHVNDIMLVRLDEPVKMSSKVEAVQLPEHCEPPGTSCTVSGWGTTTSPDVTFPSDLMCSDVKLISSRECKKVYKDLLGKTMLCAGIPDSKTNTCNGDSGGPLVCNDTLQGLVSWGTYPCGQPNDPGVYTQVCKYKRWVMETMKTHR
# T2 sequence (P49862 30-253): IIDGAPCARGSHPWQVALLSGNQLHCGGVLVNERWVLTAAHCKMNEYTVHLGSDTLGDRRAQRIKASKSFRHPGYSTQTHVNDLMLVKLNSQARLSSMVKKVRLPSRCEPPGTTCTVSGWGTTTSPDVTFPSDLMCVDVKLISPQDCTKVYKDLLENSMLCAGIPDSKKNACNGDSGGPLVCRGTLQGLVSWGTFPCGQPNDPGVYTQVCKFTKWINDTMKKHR
"IC50(nM), inhibition of protease activity (cleavage of BOC-Val-Pro-Arg-AMC) (human KLK5, active form [1])","IC50(nM), inhibition of protease activity (cleavage of KHLF-AMC) (human KLK7, active form [2])","IC50(nM), inhibition of protease activity (cleavage of BOC-Val-Pro-Arg-AMC) (mouse KLK5 [3])","IC50(nM), inhibition of protease activity (cleavage of KHLF-AMC) (mouse KLK7 [4])","Kd (human KLK5, active form [5])","Kd (human KLK7, active form [6])",Kd (mouse KLK5 [7]),Kd (mouse KLK7 [8]),"Kd (human KLK5, active form [9])","Kd (human KLK7, active form [10])",binding result (pro-form of human KLK5),binding result (pro-form of human KLK7),Binder
0.25 nM,0.25 nM,17.2 nM,5.13 nM,0.01 nM,0.0218 nM,2.79 nM,1.55 nM,,,,,B1
0.27 nM,0.16 nM,16.1 nM,1.77 nM,0.0243 nM,0.002 nM,3.15 nM,0.129 nM,< 0.05 nM,< 0.05 nM,no binding (tested: 40 nM),no binding (tested: 40 nM),B2
,,,,1000 nM,1.82 nM,,1 nM,,,,,B3
0.25 nM,0.21 nM,24.1 nM,5.28 nM,0.141 nM,0.0136 nM,4.02 nM,1.11 nM,,,,,B4
